Marks after values point to notes of the source that are not given here.

Data set [1] concerns Caco2. In words: Drug concentration in tumor cells by HPLC, Caco2. Format: cell-based, human. Particulars: incubated 2 hours.
For data set [2], the system named is HepG2. In words: Drug concentration in tumor cells by HPLC, HepG2. It counts as cell-based, human. Particulars: incubated 2 hours. As for the experimental part:
(§1) When the density of HCC cells reached to 3 × 10^6/ml, they were trypsinized and centrifuge (4°C, 800rpm, 5min), then discarded the supernatant, dropping medium 3 ml and evenly mixed. Cell suspension was divided into three groups (control group, Doxorubicin-tripeptide conjugate group and Doxorubicin group). The drug concentration was 0.01 mg/ml for cultured 2 hours avoiding light. Then the cells obtained by centrifugation were proceeded by the following steps: washed 3 times with 1 ml normal saline, added 0.5 ml ultra pure water (Millipore), broken by ultrasonic wave, drooped in acetonitrile (Tianjin Concord Technology Co. Ltd, China) 0.5 ml, mixed, ultrasonic oscillation for 10 mins, centrifuge (1200 rpm, 15 min), take the supernatant, filtration with filter membrane, take 20 μl for HPLC analysis (Agilent 1100 HPLC system, USA).
(§2) Chromatographic conditions were as follows: chromatographic column: DIONEX Acclaim 120 C18 (2.1 × 250 mm, 5 μm 120A), Mobile phase: Acetonitrile-0.2%NaH2PO4 aqueous solution (35: 65), Velocity: 0.35 ml/min, column temperature: 30°C, DAD, 254 nm, sample size: 20 μl. […] According to the chromatographic condition, the retention time (tR), peak position time, chromatographic behavior, resolution (R), the minimum detectable concentration and the intracellular drug concentration of these two drugs were detected in turn.

Data set [3] in a line: Cardiac indexes, Bel-7402 HCC mice. Format: in vivo, nude mice. Particulars: high dose, after treatment.
A short description of data set [4]: Drug distribution in tissues by Small Animal Imaging, Bel-7402 HCC mice. Format: in vivo, nude mice. Particulars: Bel-7402 HCC mice (high dose group), compared with Doxorubicin group.
Description: (§5) What's more, the tumor, liver, jejunum and heart tissue of mice were dissected firstly for Small Animal Imaging (KODAK IS in-vivo FX, Kodak), and secondly were placed in the 10% Formaldehyde solution to prepare paraffin section, HE staining for histological examination.
The subject of data set [5] is Bel-7402. In words: Drug concentration in tumor cells by HPLC, Bel-7402. Format: cell-based, human. Particulars: incubated 2 hours. On the procedure: as §1, §2
In data set [6] the test system is HepG2 HCC. From the text:
(§3) An animal model of HCC cells (Bel-7402, HepG2) transplanted into nude mice was established according to the method described in ref. 10.

The test system of data set [7] is Bel-7402 HCC.
Description: as §3

Data set [8] has as its system HepG2. In words: cells. Particulars: HepG2, MTT. It counts as cell-based, human. On the procedure:
(§4) Cells in the growth log phase were seeded in 96-well plate (200 ul/well) with density 8×10^3/well for 24 hours, then the drugs were added. The concentration of Doxorubicin-tripeptide conjugate was 0.005 mg/ml, 0.01 mg/ml, 0.02 mg/ml, 0.04 mg/ml, 0.06 mg/ml in turn, while Doxorubicin followed by 0.005 mg/ml, 0.01 mg/ml, 0.02 mg/ml, 0.04 mg/ml, 0.06 mg/ml with a same dosing volume 100 μl. Each concentration group included five equal wells and was provided with a control well of medium alone as a negative control. Add 20 μl of MTT Reagent ( 5 mg/ml, Sigma) to each well, including controls and continue to be incubated at 37°C for 4 hours. Remove the supernatant, drop plus DMSO (200 μl/well) and measure the OD value in each well, including the blanks, at 490 nm by a Multi-Mode Reader (BioTek, Synergy 2, USA). To calculate the inhibitory rate and the half maximal inhibitory concentration (IC50) according to the formula: Inhibitory rate =(1-( the dosing group OD/the control group OD )) × 100%, IC50 = lg^-1 (Xm-i (ΣP-0.5)) (Xm: the logarithm of maximum concentration, I: the logarithm of maximum dose/ adjacent dose, P: the sum of each group inhibitory rate, Pm: the maximum inhibitory rate, Pn: the minimum inhibitory rate ).

Data set [9] deals with Bel-7402. In words: cells. It counts as cell-based, human. Particulars: Bel-7402, MTT. As for the experimental part:
as §4

Data set [10] has as its system Caco2. In words: cells. It counts as cell-based, human. Particulars: Caco2, MTT. As for the experimental part:
as §4

The nature of data set [11]: Blood routine, HepG2 HCC mice. It counts as in vivo, nude mice. Particulars: low dose, after treatment.
Data set [12] is described as follows: Cardiac indexes, HepG2 HCC mice. It counts as in vivo, nude mice. Particulars: low dose, after treatment.
Data set [13] has as its system HCC cells. In words: MTT on HCC cells (cell line not given). It counts as cell-based, human. On the procedure:
as §4

Data set [14] in a line: Blood routine, Bel-7402 HCC mice. It counts as in vivo, nude mice. Particulars: high dose, after treatment.
Data set [15] is described as follows: Drug distribution in tissues by Small Animal Imaging, HepG2 HCC mice. It counts as in vivo, nude mice. Particulars: HepG2 HCC mice (low dose group), compared with control group.
Description: as §5
The target of data set [16] is T1, PEPT1 (Homo sapiens, UniProt P46059).
T1 construct: Doxorubicin-tripeptide conjugate were incubated with HCC cell monolayer at pH 6.0 for 120 min; endogenous in cells; host or cells: Bel-7402, HepG2 (human HCC cells); Caco-2
T1 sequence (P46059 1-708): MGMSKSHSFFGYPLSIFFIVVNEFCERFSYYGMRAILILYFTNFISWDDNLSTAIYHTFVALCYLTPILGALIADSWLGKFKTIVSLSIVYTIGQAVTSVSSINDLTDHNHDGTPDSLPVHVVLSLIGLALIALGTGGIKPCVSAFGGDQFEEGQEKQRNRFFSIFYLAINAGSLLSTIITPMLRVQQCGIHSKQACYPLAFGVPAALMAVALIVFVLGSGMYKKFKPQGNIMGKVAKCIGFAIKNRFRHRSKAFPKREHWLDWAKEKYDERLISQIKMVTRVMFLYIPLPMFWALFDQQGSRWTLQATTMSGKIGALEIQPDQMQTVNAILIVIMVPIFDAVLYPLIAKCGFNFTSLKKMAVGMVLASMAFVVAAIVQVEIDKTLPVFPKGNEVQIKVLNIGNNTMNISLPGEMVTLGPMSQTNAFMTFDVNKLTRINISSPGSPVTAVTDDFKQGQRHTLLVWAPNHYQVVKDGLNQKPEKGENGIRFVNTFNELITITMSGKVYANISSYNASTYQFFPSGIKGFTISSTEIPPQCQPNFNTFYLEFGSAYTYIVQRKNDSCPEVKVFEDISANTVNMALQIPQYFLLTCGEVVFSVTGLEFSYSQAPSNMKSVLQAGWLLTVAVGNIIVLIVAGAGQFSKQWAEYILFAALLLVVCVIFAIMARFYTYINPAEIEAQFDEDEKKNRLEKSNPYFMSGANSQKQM
Also on record: method as in previous research of the authors (Figure 1). Particulars: Bel-7402, HepG2 and Caco-2 cells; ref previous research of the authors (Figure 1); cited from earlier work.

With `COc1cccc2c1C(=O)c1c(O)c3c(c(O)c1C2=O)C[C@@](O)(C(=O)CO)C[C@@H]3O[C@H]1C[C@H](NC(=O)CNC(=O)CNC(=O)CN)[C@H](O)[C@H](C)O1` [Doxorubicin-tripeptide conjugate], the “drug concentration in tumor cells” value came out at 3090 ± 30 ng/mL in data set [1], 2940 ± 20 ng/mL in [2] and 3080 ± 30 ng/mL in data set [5]. The figures for the AST in data set [3] and in [12] were 720.83 ± 303.52^b U/L and 637.75 ± 319.83 U/L, respectively. For the same molecule, the CK in data set [3] is on record as 1025.17 ± 182.34^b U/L; in data set [12], 1070.75 ± 193.32 U/L. The CK-Mb in data set [3] is reported as 424.33 ± 189.91^b U/L; in data set [12], 570.00 ± 99.07^b U/L. The GSH-PX in data set [3] is listed as 700.50 ± 79.58^b U; in data set [12], 682.33 ± 51.09 U. The LDH in data set [3] was determined as 6517.00 ± 1956.59 U/L; in [12] it was 6116.75 ± 1136.22 U/L. The MDA in data set [3] was 2.78 ± 0.22^b nmol/mg; in data set [12], 3.16 ± 0.26 nmol/mg. For the same molecule, the results for the SOD in data set [3] and in data set [12] were 171.71 ± 15.51 U/mg and 164.15 ± 25.20 U/mg, respectively. Moreover, the “drug distribution in tissues” value in [4] was “mainly distributed in subcutaneous tumor tissue and liver metastatic tumor tissue and less in heart tissue”; in data set [15], “mainly distributed in subcutaneous tumor tissue and less in heart tissue”. Moreover, the deaths during treatment entry was “no death” in [6] (HepG2, low dose group, 5W) and 1 death during the treatment of 4W+ in data set [7] (Bel-7402, high dose group, 5W). The “Mice weight, Before treatment” value came to 20.88 ± 5.37 g in data set [6] (HepG2 HCC mice, baseline) and 23.22 ± 1.57 g in data set [7] (Bel-7402 HCC mice, baseline). The “Mice weight, After treatment” value is listed as 19.90 ± 3.71 g in data set [6] (HepG2 HCC mice, low dose: Doxorubicin 40 mg/m^2, conjugate 200 mg/m^2, tail vein, 5 weeks) and 20.13 ± 1.09^a g in [7] (Bel-7402 HCC mice, high dose: Doxorubicin 60 mg/m^2, conjugate 300 mg/m^2, tail vein, 5 weeks). Besides, the IC50 in data set [8] turned out to be 51.4 µg/mL; in [9], 52.5 µg/mL; in data set [10] it was 52.9 µg/mL; in data set [13] it was 50 µg/mL. Moreover, the “change of mice weight during treatment” value (HCC mice, both dose groups) is on record as “weight increase in group B at the early stage of treatment, but a weight decreased significantly at the late stage of treatment”. Besides, where the note is “HCC mice, both dose groups”, the “survival quality (general condition)” value is “lethargy, vomiting and loss of appetite administered within 3 days, then gradually restored”. Besides, the “damage to heart and bone marrow” value (compared with the Doxorubicin group, cardiac indexes, histopathology, blood routine, bone marrow smears, P < 0.05) was “less damage to the heart and bone marrow”. For the same molecule, the PLT is 135.00 ± 69.55 ×10^9/l in [11] and 159.83 ± 74.74^b ×10^9/l in data set [14]. The values for the RBC in [11] and in data set [14] were 8.03 ± 0.91 ×10^12/l and 7.50 ± 1.77 ×10^12/l, respectively. Further, the results for the WBC in data set [11] and in data set [14] were 8.08 ± 3.40 ×10^9/l and 7.05 ± 2.70^b ×10^9/l, respectively.

In the case of `Cc1c(CC(=O)NCCCC[C@H](NC(=O)[C@@H](C)N)C(=O)O)c(=O)oc2cc(N)ccc12` [Ala-Lys-AMCA], in data set [16], the “inhibition of uptake by PEPT1 substrates” value is “competitive inhibition by three known substrates of PEPT1”; the “uptake dependence on time and concentration” value was “time-dependent and concentration-dependent”.

Usually IC50 stands for the concentration that inhibits the measured activity by half.
